B1: mRNA-splicing (parent)
chain: AGUUGCUGCUGGGAGCUCCAGCACAGUGAAAUGGACAGAAGGGCAGAGCAA

Variants of B1 are the subject of this data set. The data set can be described thus: exon inclusion enrichment index; higher = more inclusion; WT1 exon 5 minigene, HEK293.
Consider AGUUCACACAGGGAGCUCCAGCACAGUGAAAUGGAUAGAAGGGCAGAGCAA [G5C C6A U7C G8A U10A C36U], for which the “exon inclusion enrichment index” value is 0.0372.
In the case of AGUUCUUCUCGGGAGCUCCAGCGGAGUGAAAUGGACAGAAGGGCAGAGCAA [G5C C6U G8C C9U U10C A23G C24G], the “exon inclusion enrichment index” value is 3.51.
The figure for AGUUGACGACGGGAGCUCCAGCACAGUGAAAUGGACAGAAGGGCACGGCAA [C6A U7C C9A U10C G46C A47G] is 3.46; for AGCCGACGACGGGAGCUCCAGCACAGUGAAAUGGACAGAAGGGCAGAGCAA [U3C U4C C6A U7C C9A U10C] it is 4.17; for AGUUAGGGAUGGGAGCUCCAGCACAGUGAAAUGGCAAGAAGGGCAGAGCAA [G5A C6G U7G C9A A35C C36A] it is 0.000972.
As for AGUUAUAUAUGGGAGCAGCAGCACAGUGAAAUGGACAGAAGGGCAGAGCAA [G5A C6U U7A G8U C9A U17A C18G], the figure is 0.0258.
Consider AGUUCACACAGGGAGCUCCAGUUCAGUGAAAUGGACAGAAGGGCAGAGCAA [G5C C6A U7C G8A U10A C22U A23U], for which the “exon inclusion enrichment index” value amounted to 0.0622.
As for AGUUAGGGAUGGGAGCUCCAGCACAGUGAAAUGGACAGAACUGCAGAGCAA [G5A C6G U7G C9A G41C G42U], the figure is 0.0271.
As for AGUUCUUCUCGGGAGCUCCAGCACAGUGAAAUUUACAGAAGGGCAGAGCAA [G5C C6U G8C C9U U10C G33U G34U], the figure is 0.282; as for AGUUAGGGAUGGGAGCUCCAGCACUCUGAAAUGGACAGAAGGGCAGAGCAA [G5A C6G U7G C9A A25U G26C], 0.00304; as for AGUUCGGGAUGGGAGCUCCAGCACAGUGAAAUGGACAGAAGGGCAGAGCAA [G5C C6G U7G C9A], 1.02.
The figure for AGUUACCACCGGGAGCUCCAGCACAGCUAAAUGGACAGAAGGGCAGAGCAA [G5A U7C G8A U10C U27C G28U] is 1.74; for AAGUACCACCGGGAGCUCCAGCACAGUGAAAUGGACAGAAGGGCAGAGCAA [G2A U3G G5A U7C G8A U10C] it is 1.76; for AGUUCACACAGGGAGCUCCAGCACAGUGAAAUGUACAGAAGGGCAGAGCAA [G5C C6A U7C G8A U10A G34U] it is 0.012.
As for AGUUAUAUAUGGGAGCUCCAGCACAGUGAAAUACACAGAAGGGCAGAGCAA [G5A C6U U7A G8U C9A G33A G34C], the “exon inclusion enrichment index” value stood at 0.0195.
The figure for AGUUGAAGAAGGGAUAUCCAGCACAGUGAAAUGGACAGAAGGGCAGAGCAA [C6A U7A C9A U10A G15U C16A] is 0.381; for AGUUAGGGAUGGGAGCUCCAGCACAGUGAAAUGGGAAGAAGGGCAGAGCAA [G5A C6G U7G C9A A35G C36A] it is 0.00181.
As for AGUUCUUCUCGGGAGCUCCAGCACAGUGCAAUGGACAGAAGGGCAGAGCAA [G5C C6U G8C C9U U10C A29C], the figure is 1.75.
The figure for AGUUCGCGCCGGGAGCUCCAGCACAGUGAAAUGGACAGAAGGGUUGAGCAA [G5C C6G U7C U10C C44U A45U] is 2.84.
Regarding AGUUGACGACGGGAGCUCCAGCACGAUGAAAUGGACAGAAGGGCAGAGCAA [C6A U7C C9A U10C A25G G26A], the “exon inclusion enrichment index” value was 5.01.
As for AGUUGAAGAAGGGAGCUCCAGCGUAGUGAAAUGGACAGAAGGGCAGAGCAA [C6A U7A C9A U10A A23G C24U], the figure is 0.189.
AGUUCGCGCCGGGAGCUCCAGCACAGUGAAAUGGACAGAUGGGCAGAGCAA [G5C C6G U7C U10C A40U]: the “exon inclusion enrichment index” value is 2.71.
As for AGUUGAAGAAGGGAGCUCCAGCACAGUGAAAUGGACAGAAAGGCAGAGCAA [C6A U7A C9A U10A G41A], the figure is 0.4.
As for AGUUCUUCUCGGGAGCUCCAGCACAGUGAAAUGGACAUAAGGGCAGAGCAA [G5C C6U G8C C9U U10C G38U], the figure is 0.577.
As for AGUUCGCGCCGGGAGCUCCAGCACAGUGAAAUGGACAGAAGGGCAAGGCAA [G5C C6G U7C U10C G46A A47G], the figure is 1.33.
As to AGUUGACGACGGGAGCGACAGCACAGUGAAAUGGACAGAAGGGCAGAGCAA [C6A U7C C9A U10C U17G C18A], the “exon inclusion enrichment index” value is 3.29.
As for AGUUCUUCUCGGGAGCCGCAGCACAGUGAAAUGGACAGAAGGGCAGAGCAA [G5C C6U G8C C9U U10C U17C C18G], the figure is 2.39; as for AGGGAUAUAUGGGAGCUCCAGCACAGUGAAAUGGACAGAAGGGCAGAGCAA [U3G U4G G5A C6U U7A G8U C9A], 0.0433; as for AGUUCACACAGGGUGCUCCAGCACAGUGAAAUGGACAGAAGGGCAGAGCAA [G5C C6A U7C G8A U10A A14U], 0.0358.
As for AGUUACCACCGGGAGUCCCAGCACAGUGAAAUGGACAGAAGGGCAGAGCAA [G5A U7C G8A U10C C16U U17C], the figure is 1.33.
As for AGUUUCUUUUGGCAGCUCCAGCACAGUGAAAUGGACAGAAGGGCAGAGCAA [G5U G8U C9U G13C], the figure is 0.0102.
Take AGUUGACGACGGGAGCUCCAGCACAGUGAAAUGGAAUGAAGGGCAGAGCAA [C6A U7C C9A U10C C36A A37U]: the “exon inclusion enrichment index” value is 2.17.
As for AGUUCUUCUCGGGAGCUCCAGCACAGUGAAAUGGACAGAGAGGCAGAGCAA [G5C C6U G8C C9U U10C A40G G41A], the figure is 0.782; as for ACGUCGCGCCGGGAGCUCCAGCACAGUGAAAUGGACAGAAGGGCAGAGCAA [G2C U3G G5C C6G U7C U10C], 2.57; as for AGUUCGCGCCGGGAGCUCGCGCACAGUGAAAUGGACAGAAGGGCAGAGCAA [G5C C6G U7C U10C C19G A20C], 2.89.
As for AGUUAGGGAUGGGAGCUUAAGCACAGUGAAAUGGACAGAAGGGCAGAGCAA [G5A C6G U7G C9A C18U C19A], the figure is 0.00106; as for AGUUUCUUUUGGGAGCUCCAGCACAGUGAAAUGGCUAGAAGGGCAGAGCAA [G5U G8U C9U A35C C36U], 0.0048.
The figure for AGUUACCACCGGGAGCUCCAGCACAGUCGAAUGGACAGAAGGGCAGAGCAA [G5A U7C G8A U10C G28C A29G] is 3.25.
With AGUUGCUGCUGGGAGCUCCAGCACAGUGAAAUGGACAGAAGGGAGGAGCAA [C44A A45G], the “exon inclusion enrichment index” value was 0.233.
On to AGUUCGCGCCGGGAGCUCCAGCACAGUGAAAUGGACAGUUGGGCAGAGCAA [G5C C6G U7C U10C A39U A40U], for which the “exon inclusion enrichment index” value turned out to be 1.88.
The figure for AGUUACCACCGGGAGCUCCAGCCAAGUGAAAUGGACAGAAGGGCAGAGCAA [G5A U7C G8A U10C A23C C24A] is 2.48.
As for AGUUCUUCUCGGGAGCUCCAGCACAGUGAGGUGGACAGAAGGGCAGAGCAA [G5C C6U G8C C9U U10C A30G A31G], the “exon inclusion enrichment index” value was 0.469.
As for AGUUGCUGCUGGGAGCUGGAGCACAGUGAAAUGGACAGAAGGGCAGAGCAA [C18G C19G], the figure is 3.04.
On to AGUUGAAGAAGGGAGCUCCAUUACAGUGAAAUGGACAGAAGGGCAGAGCAA [C6A U7A C9A U10A G21U C22U], for which the “exon inclusion enrichment index” value amounted to 0.172.
As for AGUUCGCGCCGGGAGCUCCAGCACAGUGAAAUGCGCAGAAGGGCAGAGCAA [G5C C6G U7C U10C G34C A35G], the figure is 2.84; as for AGUUUCUUUUGGGAGCUCCAGCACAGCCAAAUGGACAGAAGGGCAGAGCAA [G5U G8U C9U U27C G28C], 0.257.
The figure for AUGUCACACAGGGAGCUCCAGCACAGUGAAAUGGACAGAAGGGCAGAGCAA [G2U U3G G5C C6A U7C G8A U10A] is 0.503; for AGUUUCUUUUGGGAGCUCCAGCACAGUGAAAUGGACAGAAGGGCACGGCAA [G5U G8U C9U G46C A47G] it is 0.306.
As for AGUUGAAGAAGGGAGCUCCAGCACAGUGCGAUGGACAGAAGGGCAGAGCAA [C6A U7A C9A U10A A29C A30G], the figure is 1.51; as for AGUUAGGGAUGGGAGCUCCAGCACAGUGAAAUGGACAGAAGGCUAGAGCAA [G5A C6G U7G C9A G43C C44U], 0.000823; as for AGUUGACGACGGGACAUCCAGCACAGUGAAAUGGACAGAAGGGCAGAGCAA [C6A U7C C9A U10C G15C C16A], 2.79.
